Legend:
Test in all cases: SPR
Conditions in all cases: both partners purified
[1] = target: T1, SARS-CoV-2 Omicron BA.1 S NTD, human Fc-tagged (SARS-CoV-2 Omicron BA.1, strain)
T1 construct: also called BA.1 NTD

[2] = target: T2, SARS-CoV-2 Omicron BA.2 S NTD, human Fc-tagged (SARS-CoV-2 Omicron BA.2, strain)
T2 construct: also called BA.2 NTD
T2 chain: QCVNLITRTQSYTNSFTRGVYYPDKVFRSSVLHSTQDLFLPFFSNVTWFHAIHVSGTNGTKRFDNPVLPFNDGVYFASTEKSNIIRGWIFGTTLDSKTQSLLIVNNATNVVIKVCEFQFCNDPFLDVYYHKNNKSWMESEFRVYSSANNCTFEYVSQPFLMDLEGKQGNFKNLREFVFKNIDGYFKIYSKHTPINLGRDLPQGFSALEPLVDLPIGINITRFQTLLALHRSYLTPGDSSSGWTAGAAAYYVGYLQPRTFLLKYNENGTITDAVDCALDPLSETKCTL

[3] = target: T3, SARS-CoV-2 Omicron BA.2.75 S NTD, human Fc-tagged (SARS-CoV-2 Omicron BA.2.75, strain)
T3 construct: also called BA.2.75 NTD
T3 chain: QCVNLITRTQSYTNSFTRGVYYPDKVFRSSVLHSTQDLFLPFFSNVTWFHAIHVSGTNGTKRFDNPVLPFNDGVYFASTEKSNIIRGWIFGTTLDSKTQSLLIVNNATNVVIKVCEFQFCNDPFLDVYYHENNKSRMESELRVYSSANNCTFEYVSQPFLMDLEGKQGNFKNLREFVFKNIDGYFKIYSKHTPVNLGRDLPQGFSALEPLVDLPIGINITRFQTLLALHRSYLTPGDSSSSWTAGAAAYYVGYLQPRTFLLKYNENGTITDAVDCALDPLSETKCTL

[4] = target: T4, SARS-CoV-2 Omicron BA.2.3.20 S NTD, human Fc-tagged (SARS-CoV-2 Omicron BA.2.3.20, strain)
T4 construct: also called BA.2.3.20 NTD
T4 chain: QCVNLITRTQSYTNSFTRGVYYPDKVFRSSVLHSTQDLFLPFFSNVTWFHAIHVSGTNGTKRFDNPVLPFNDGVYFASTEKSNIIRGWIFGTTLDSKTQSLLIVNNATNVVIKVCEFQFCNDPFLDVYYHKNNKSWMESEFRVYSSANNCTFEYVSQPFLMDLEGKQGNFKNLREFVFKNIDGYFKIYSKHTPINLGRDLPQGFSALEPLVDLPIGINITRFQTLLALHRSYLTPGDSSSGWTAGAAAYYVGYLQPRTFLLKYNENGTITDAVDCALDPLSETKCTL

[5] = target: T5, SARS-CoV-2 Omicron BA.3 S NTD, human Fc-tagged (SARS-CoV-2 Omicron BA.3, strain)
T5 construct: also called BA.3 NTD

[6] = target: T6, SARS-CoV-2 Omicron BA.5 S NTD, human Fc-tagged (SARS-CoV-2 Omicron BA.5, strain)
T6 construct: also called BA.5 NTD
T6 chain: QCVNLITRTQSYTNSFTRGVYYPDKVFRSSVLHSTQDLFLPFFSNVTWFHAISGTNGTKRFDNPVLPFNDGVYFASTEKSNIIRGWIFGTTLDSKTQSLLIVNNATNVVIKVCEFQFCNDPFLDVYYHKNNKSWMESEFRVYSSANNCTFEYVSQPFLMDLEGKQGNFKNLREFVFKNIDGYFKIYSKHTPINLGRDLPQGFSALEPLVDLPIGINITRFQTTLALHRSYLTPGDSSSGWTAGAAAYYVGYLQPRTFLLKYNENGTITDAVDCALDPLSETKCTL

[7] = target: T7, SARS-CoV-2 Omicron XBB S NTD, human Fc-tagged (SARS-CoV-2 Omicron XBB, strain)
T7 construct: also called XBB NTD
T7 chain: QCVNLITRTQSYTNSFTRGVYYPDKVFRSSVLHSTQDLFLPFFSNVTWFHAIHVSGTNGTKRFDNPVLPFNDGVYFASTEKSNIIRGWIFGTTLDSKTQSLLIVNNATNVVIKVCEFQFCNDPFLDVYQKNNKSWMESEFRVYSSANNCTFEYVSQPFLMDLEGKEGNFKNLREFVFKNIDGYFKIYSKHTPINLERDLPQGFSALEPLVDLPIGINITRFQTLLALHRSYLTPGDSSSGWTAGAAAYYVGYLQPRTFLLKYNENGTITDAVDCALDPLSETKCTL

[8] = target: T8, SARS-CoV-2 Omicron XBB.1.5 S NTD, human Fc-tagged (SARS-CoV-2 Omicron XBB.1.5, strain)
T8 construct: also called XBB.1.5 NTD
T8 chain: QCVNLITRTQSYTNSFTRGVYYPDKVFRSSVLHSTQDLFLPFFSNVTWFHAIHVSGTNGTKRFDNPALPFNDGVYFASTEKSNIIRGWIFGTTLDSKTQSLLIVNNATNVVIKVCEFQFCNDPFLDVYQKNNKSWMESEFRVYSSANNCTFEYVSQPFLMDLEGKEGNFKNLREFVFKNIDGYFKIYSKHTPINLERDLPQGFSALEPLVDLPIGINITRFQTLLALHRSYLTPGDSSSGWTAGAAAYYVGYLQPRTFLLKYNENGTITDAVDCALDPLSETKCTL

[9] = target: T9, SARS-CoV-2 Omicron XBB.1.16 S NTD, human Fc-tagged (SARS-CoV-2 Omicron XBB.1.16, strain)
T9 construct: also called XBB.1.16 NTD
T9 chain: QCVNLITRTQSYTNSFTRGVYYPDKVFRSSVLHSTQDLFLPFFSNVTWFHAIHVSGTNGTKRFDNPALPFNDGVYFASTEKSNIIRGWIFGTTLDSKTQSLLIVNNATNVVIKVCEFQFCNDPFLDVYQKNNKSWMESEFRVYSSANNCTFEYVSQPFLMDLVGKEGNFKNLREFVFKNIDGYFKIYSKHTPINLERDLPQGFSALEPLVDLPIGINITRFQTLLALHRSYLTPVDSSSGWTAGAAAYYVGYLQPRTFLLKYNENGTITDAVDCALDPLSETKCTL

[10] = target: T10, SARS-CoV-2 Omicron EG.5.1 S NTD, human Fc-tagged (SARS-CoV-2 Omicron EG.5.1, strain)
T10 construct: also called EG.5.1 NTD
T10 chain: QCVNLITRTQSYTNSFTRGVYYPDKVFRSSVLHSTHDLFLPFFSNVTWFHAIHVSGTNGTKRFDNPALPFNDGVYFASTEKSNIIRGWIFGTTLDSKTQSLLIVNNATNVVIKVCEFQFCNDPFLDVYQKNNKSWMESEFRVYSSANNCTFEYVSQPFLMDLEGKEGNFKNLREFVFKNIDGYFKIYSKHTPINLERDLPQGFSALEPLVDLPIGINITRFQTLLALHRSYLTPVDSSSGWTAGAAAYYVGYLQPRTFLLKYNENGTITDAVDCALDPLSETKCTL

[11] = target: T11, SARS-CoV-2 Omicron BA.2.86 S NTD, human Fc-tagged (SARS-CoV-2 Omicron BA.2.86, strain)
T11 construct: also called BA.2.86 NTD
T11 chain: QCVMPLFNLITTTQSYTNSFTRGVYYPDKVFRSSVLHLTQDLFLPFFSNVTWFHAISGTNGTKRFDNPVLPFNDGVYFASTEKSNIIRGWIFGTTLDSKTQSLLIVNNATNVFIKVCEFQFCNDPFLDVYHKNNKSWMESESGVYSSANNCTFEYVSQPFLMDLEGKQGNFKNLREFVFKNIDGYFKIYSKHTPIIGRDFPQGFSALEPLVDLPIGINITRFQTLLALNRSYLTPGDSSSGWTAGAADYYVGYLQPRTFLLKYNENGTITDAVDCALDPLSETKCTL

[12] = target: T12, SARS-CoV-2 Omicron JN.1 S NTD, human Fc-tagged (SARS-CoV-2 Omicron JN.1, strain)
T12 construct: also called JN.1 NTD
T12 chain: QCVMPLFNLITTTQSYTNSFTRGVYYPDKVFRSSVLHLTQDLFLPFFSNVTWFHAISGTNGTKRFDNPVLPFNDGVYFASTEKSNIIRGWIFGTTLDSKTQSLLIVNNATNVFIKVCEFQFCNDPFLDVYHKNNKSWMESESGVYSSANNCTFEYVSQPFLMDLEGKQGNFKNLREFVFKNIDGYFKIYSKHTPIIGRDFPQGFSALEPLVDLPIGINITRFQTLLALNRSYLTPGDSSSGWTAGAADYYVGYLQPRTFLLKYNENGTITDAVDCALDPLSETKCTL

[13] = target: T13, SARS-CoV-2 Delta S NTD, human Fc-tagged (SARS-CoV-2 Delta (B.1.617.2), strain)
T13 construct: also called Delta NTD

[14] = target: T14, SARS-CoV-2 Lambda S NTD, human Fc-tagged (SARS-CoV-2 Lambda (C.37), strain)
T14 construct: also called Lambda NTD
T14 chain: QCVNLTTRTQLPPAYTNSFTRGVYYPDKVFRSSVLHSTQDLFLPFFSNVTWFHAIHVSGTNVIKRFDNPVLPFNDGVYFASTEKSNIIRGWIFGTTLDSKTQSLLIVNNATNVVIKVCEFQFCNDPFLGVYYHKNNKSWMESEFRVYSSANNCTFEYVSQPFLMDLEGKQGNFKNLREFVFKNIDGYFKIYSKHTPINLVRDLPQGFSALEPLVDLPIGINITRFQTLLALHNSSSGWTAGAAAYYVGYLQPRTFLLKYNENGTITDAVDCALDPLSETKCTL

Measured: Kd

B1: nanobody N235, His-tagged (VHH)
VHH: QVQLQESGGGLVQPGGSLRLSCAASGLIISRYDMSWYRQAPGKERELVATTPIPAARPQYADSVKGRFTISRDNAKNTVSLQMNSLKPEDTAVYYCNLGPESQDHNYNYWGQGTQVTVSS
< 0.2 nM: [1] | [2] | [3] | [4] | [5] | [6] | [7] | [8] | [9] | [10] | [11] | [12] | [13] | [14]
